Measured values taken from US6677440.

Tests used:
[1] = target: blood clotting factor VII (UniProt P08709)
prourokinase = prourokinase (UniProt P00749)

Chain of proenzyme form of the factor VII-activating protease (chain, as listed by the source): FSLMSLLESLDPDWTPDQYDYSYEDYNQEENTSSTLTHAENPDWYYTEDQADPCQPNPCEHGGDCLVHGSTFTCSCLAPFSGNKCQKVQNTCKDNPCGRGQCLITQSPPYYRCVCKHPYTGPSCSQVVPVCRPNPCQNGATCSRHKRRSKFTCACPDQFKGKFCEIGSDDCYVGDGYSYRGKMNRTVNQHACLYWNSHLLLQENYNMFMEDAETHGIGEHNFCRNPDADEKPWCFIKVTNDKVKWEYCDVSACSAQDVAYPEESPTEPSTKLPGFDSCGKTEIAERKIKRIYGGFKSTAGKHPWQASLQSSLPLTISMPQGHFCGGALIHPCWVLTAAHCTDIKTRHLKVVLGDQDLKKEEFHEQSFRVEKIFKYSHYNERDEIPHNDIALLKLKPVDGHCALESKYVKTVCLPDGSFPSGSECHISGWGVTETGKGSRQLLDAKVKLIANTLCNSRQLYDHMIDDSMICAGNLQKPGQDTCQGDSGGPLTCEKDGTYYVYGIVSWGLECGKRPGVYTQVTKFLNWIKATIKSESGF
Chain of blood clotting factor VII (P08709 61-466): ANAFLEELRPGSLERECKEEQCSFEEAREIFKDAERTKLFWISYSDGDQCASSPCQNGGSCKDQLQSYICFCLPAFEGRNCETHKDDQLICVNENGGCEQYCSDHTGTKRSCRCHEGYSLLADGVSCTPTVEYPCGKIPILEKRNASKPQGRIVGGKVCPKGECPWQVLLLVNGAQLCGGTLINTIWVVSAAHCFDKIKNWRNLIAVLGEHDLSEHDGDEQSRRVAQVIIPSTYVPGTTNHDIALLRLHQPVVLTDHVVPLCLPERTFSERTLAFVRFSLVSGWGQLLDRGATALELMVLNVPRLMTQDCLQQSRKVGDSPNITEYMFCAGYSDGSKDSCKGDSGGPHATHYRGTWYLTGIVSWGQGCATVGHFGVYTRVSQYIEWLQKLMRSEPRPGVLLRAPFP

Substance: proenzyme form of the factor VII-activating protease
- activation of factor VII, with subsequent detection of activated factor VII (activity tests of Example 1) [1]: The activity tests (see Example 1) confirmed the nativity of the protein in the sense of the retainment of the biological activities
- activation of prourokinase, with subsequent detection of urokinase (activity tests of Example 1) (prourokinase): The activity tests (see Example 1) confirmed the nativity of the protein in the sense of the retainment of the biological activities
